From article PMC5227068

Experiments:
[1] = target: recombinant human endothelial protein C receptor (human) (UniProt Q9UNN8); test: BLI; Octet Qke; EPCR on the biosensor, CIDR domain in solution; protocol as reported previously (ref. 40); double-reference subtracted data fitted to a 1:1 binding model
[2] = target: human EPCR on CHO745-EPCR cells (human) (UniProt Q9UNN8); test: flow cytometry on cells; competition: CHO745-EPCR cells coincubated for 30 min with 50 μg/ml (660 nM) or 250 μg/ml (3.3 µM) CIDR domains and 25 μg/ml (446 nM) APC; APC detected by anti-human protein C antibody
[3] = target: recombinant human CD36 (human) (UniProt P16671); test: BLI; Octet Qke; hisCD36 immobilised on Ni-NTA biosensors, CIDR domains in solution; kinetics buffer (PBS, 0.02% Tween-20, 100 μg/ml bovine serum albumin, 0.005% sodium azide); association 600 or 900 s, dissociation 300 to 600 s; 1:1 fit
[4] = target: recombinant human CD36 (human) (UniProt P16671); test: BLI; Octet Qke; hisCD36 immobilised on Ni-NTA biosensors, CIDR domain in kinetics buffer (PBS, 0.02% Tween-20, 100 ug/ml BSA, 0.005% sodium azide); association 600 or 900 s, dissociation 300 to 600 s; double-reference subtracted data fitted to a 1:1 binding model

Chain of recombinant human CD36 (human) (P16671 whole entry, the tested form may be a part): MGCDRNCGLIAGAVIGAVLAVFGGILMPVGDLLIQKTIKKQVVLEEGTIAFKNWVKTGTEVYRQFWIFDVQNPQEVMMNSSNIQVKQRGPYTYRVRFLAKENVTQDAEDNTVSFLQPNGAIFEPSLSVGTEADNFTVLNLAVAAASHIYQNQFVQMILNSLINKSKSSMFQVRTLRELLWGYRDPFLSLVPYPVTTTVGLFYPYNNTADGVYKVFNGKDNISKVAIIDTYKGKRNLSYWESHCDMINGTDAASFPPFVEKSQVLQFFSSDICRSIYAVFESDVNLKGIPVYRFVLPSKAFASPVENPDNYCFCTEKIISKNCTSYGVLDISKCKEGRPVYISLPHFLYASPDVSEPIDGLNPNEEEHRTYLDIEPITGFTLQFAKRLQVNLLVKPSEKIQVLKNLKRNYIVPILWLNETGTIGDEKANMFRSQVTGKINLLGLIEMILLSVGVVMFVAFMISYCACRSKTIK
Chain of human EPCR on CHO745-EPCR cells (human) (Q9UNN8 18-238): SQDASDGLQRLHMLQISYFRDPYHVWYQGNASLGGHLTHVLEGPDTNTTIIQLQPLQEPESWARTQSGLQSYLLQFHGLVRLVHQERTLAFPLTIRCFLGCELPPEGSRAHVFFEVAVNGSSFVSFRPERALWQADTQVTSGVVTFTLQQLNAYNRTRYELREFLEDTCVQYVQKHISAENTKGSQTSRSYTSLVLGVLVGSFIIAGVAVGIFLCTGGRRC
Chain of recombinant human endothelial protein C receptor (human) (Q9UNN8 18-238): as above

Question: What does the source list for “P. reichenowi var71 CIDRα1.4 (domain or fragment)”?
Answer: koff [1]: 0.000268 s⁻¹; kon [1]: 11800 M⁻¹ s⁻¹

Question: Which results are given for “P. falciparum var07 CIDRα1.4 (domain or fragment)”?
Answer: percent reduction of APC binding at 50 μg/ml CIDR [2]: 85%; percent reduction of APC binding at 250 μg/ml CIDR [2]: 98%

Question: How did the Kd [3] turn out when “P. falciparum var14 CIDRα5 (domain or fragment)” was run?
Answer: 3.2 nM

Question: And the koff [4]?
Answer: 2.99e-05 s⁻¹

Question: And the kon [4]?
Answer: 9280 M⁻¹ s⁻¹
